Results on six molecules are retold here after EP3168228A1 (Spiber Technologies AB, dated 2017).

Numbering of substitutions follows the chain as printed. In names and notes the source's numbering stands.

Series [1] concerns the molecule itself. Kind of series: gel filtration in 20 mM Tris, pH 8, self-association. On the technique in general: In gel filtration, larger molecules generally elute earlier.
The target in series [2] is wildtype NT (NTwt), N-terminal fragment of Euprosthenops australis major spidroin 1 (MaSp1) (Euprosthenops australis). Kind of series: tryptophan fluorescence ratio 339/351 nm against pH, 5 µM protein, two-state fit of the monomer-dimer equilibrium.
Series [3] concerns the molecule itself. Kind of series: tryptophan fluorescence ratio 339/351 nm against pH (self-association, dimerization).
Series [4] concerns the molecule itself. Kind of series: SDS-PAGE under non-reducing conditions after thrombin cleavage, self-association.
Series [5] concerns the molecule itself. Kind of series: gel filtration on Superdex-200, self-association.

B1: NTwt-Bri2113-231 fusion protein (other)
chain: MGHHHHHHMSHTTPWTNPGLAENFMNSFMQGLSSMPGFTASQLDDMSTIAQSMVQSIQSLAAQGRTSPNKLQALNMAFASSMAEIAASEEGGGSLSTKTSSIASAMSNAFLQTTGVVNQPFINEITQLVSMFAQAGMNDVSAGNSLVPRGSQTIEENIKIFEEEEVEFISVPVPEFADSDPANIVHDFNKKLTAYLDLNLDKCYVIPLNTSIVMPPRNLLELLINIKAGTYLPQSYLIHEHMVITDRIENIDHLGFFIYRLCHDKETYKL
notes: also called NTwt-Bri2-BRICHOS
For B1, the binding result in series [1] was “binds”.

B2: NTD40K/K65D-Bri2113-231 fusion protein (other)
chain: B1 chain with D45K, K70D
notes: also called NTD40K/K65D-Bri2-BRICHOS
As to B2, the binding result in series [1] is reported as “binds”.

B3: wildtype NT (NTwt), N-terminal fragment of Euprosthenops australis major spidroin 1 (MaSp1) (protein)
chain: SHTTPWTNPGLAENFMNSFMQGLSSMPGFTASQLDDMSTIAQSMVQSIQSLAAQGRTSPNKLQALNMAFASSMAEIAASEEGGGSLSTKTSSIASAMSNAFLQTTGVVNQPFINEITQLVSMFAQAGMNDVSA
As to B3, the pKa of dimerization in series [2] is 6.5 pH.

B4: NTD40K/K65D, charge-reversed double mutant of the NT fragment of Euprosthenops australis MaSp1 (other)
chain: B3 chain with D36K, K61D
notes: also called charge-reversed NT mutant; mutant NT
B4: in series [3], the binding result is reported as “no binding (tested: 5 µM protein, pH 5.6-8.0)”.

B5: Bri2113-231 protein (Bri2-BRICHOS), truncated BRICHOS domain of Bri2 (other)
chain: QTIEENIKIFEEEEVEFISVPVPEFADSDPANIVHDFNKKLTAYLDLNLDKCYVIPLNTSIVMPPRNLLELLINIKAGTYLPQSYLIHEHMVITDRIENIDHLGFFIYRLCHDKETYKL
notes: Released from the NT fusion proteins by thrombin; A 12 kDa band is said to be a truncated form, probably cleaved unspecifically by thrombin; also called Bri2 BRICHOS domain
With B5, in series [4], the binding result is given as “binds”.

B6: NTD40K/K65D-β17 fusion protein (other)
chain: MGHHHHHHMSHTTPWTNPGLAENFMNSFMQGLSSMPGFTASQLDKMSTIAQSMVQSIQSLAAQGRTSPNDLQALNMAFASSMAEIAASEEGGGSLSTKTSSIASAMSNAFLQTTGVVNQPFINEITQLVSMFAQAGMNDVSAGNSLVPRGSMGEQKLISEEDLGMQISMDYEIKFHGDGDNFDLNLDDSGGDLQLQIRGPGGRVHVHIHSSSGKVDFHVNNDGGDVEVKMH
As to B6, the binding result in series [5] is recorded as “binds”.
